The target of assay [1] is T1, FLAG-tagged recombinant human CLEC9A ecto-domains (hCLEC9A-ecto) (human, UniProt Q6UXN8 57-241).
T1 construct: human CLEC9A, full extracellular region (ecto) including the CTLD and stalk; also called human wild-type CLEC9A
As to the kind of experiment: ELISA; plates coated with GST-RNF41-C, GST-RNF41-RBC or GST (10 μg/ml); FLAG-tagged Clec ectodomains 10 to 0.04 μg/ml in solution; detected with anti-FLAG HRP. To be noted: both partners purified.

For assay [2], the target named is T2, mutant CLEC9A ectodomain (hCLEC9A W131A, W227A) (human, UniProt Q6UXN8 57-241, W131A | W227A).
T2 construct: human CLEC9A extracellular region (ecto) with W131A and W227A in the CTLD; Same construct as m2 with the two tryptophan mutations; also called hCLEC9A-ecto (W->A); hCLEC9A-ecto W->A
The description is as above. To be noted: both partners purified.

We go through 1 molecule from PMC7710356, “RNF41 regulates the damage recognition receptor Clec9A and antigen cross-presentation in mouse dendritic cells” (eLife, 2020).

T2 sequence (Q6UXN8 57-241 W131A/W227A): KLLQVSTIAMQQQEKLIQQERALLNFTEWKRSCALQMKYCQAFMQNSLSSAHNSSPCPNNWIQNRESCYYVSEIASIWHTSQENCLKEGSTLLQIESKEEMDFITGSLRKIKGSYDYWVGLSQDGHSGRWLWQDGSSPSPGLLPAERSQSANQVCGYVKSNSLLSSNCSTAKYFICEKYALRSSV
T1 sequence (Q6UXN8 57-241): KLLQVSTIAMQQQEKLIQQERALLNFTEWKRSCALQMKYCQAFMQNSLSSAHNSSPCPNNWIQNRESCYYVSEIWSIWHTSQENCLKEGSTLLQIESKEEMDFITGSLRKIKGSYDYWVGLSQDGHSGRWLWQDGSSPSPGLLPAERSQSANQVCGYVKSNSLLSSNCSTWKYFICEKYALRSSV

B1: GST-tagged RNF41 C-terminal domain (RNF41-C) (domain or fragment, human, UniProt Q9H4P4 169-317, looked up)
chain: DIQLLKAYMRAIRSVNPNLQNLEETIEYNEILEWVNSLQPARVTRWGGMISTPDAVLQAVIKRSLVESGCPASIVNELIENAHERSWPQGLATLETRQMNRRYYENYVAKRIPGKQAVVVMACENQHMGDDMVQEPGLVMIFAHGVEEI
notes: RNF41 C-terminal domain; region 169-DIQL…VEEI-317; Cloned into a modified pGEX-2T vector; also called GST-RNF41-C; source: E. coli BL21 DE3, purified (Glutathione-Sepharose, SEC)
Turning to B1, the binding result in assay [1] and in assay [2] was “binds” throughout.
